Results taken from the Immune Epitope Database (IEDB).

Key:
[1] = biological target: HLA-A*29:02; assay: IEDB peptide-MHC binding, purified MHC/competitive/fluorescence; filed as Kd, often an IC50 or EC50 that approximates it; ≥ and ≤ were set here for values at or beyond the usual limits of such assays; conditions: source organism: Escherichia coli HS
[2] = biological target: HLA-B*15:03; assay: IEDB peptide-MHC binding, purified MHC/competitive/radioactivity; filed as Kd, often an IC50 or EC50 that approximates it; ≥ and ≤ were set here for values at or beyond the usual limits of such assays; conditions: source organism: Vaccinia virus WR
[3] = biological target: HLA-A*02:12; assay: IEDB peptide-MHC binding, purified MHC/direct/fluorescence; filed as Kd, often an IC50 or EC50 that approximates it; ≥ and ≤ were set here for values at or beyond the usual limits of such assays; conditions: source organism: Orthohantavirus tulaense
[4] = biological target: HLA-A*02:19; assay: as above; conditions: source organism: Orthohantavirus tulaense
[5] = biological target: HLA-A*02:01; assay: as above
[6] = biological target: HLA-A*02:11; assay: as above; conditions: source organism: Orthohantavirus tulaense
[7] = biological target: HLA-B*15:01; assay: IEDB peptide-MHC binding, purified MHC/competitive/radioactivity; filed as Kd, often an IC50 or EC50 that approximates it; ≥ and ≤ were set here for values at or beyond the usual limits of such assays; conditions: source organism: Vaccinia virus WR
[8] = biological target: HLA-A*32:01; assay: as above; conditions: source organism: Vaccinia virus WR
[9] = biological target: HLA-B*08:01; assay: as above; conditions: source organism: Vaccinia virus WR
[10] = biological target: HLA-A*30:01; assay: as above; conditions: source organism: Vaccinia virus WR
[11] = biological target: HLA-A*11:01; assay: IEDB peptide-MHC binding, purified MHC/competitive/fluorescence; ≥ and ≤ were set here for values at or beyond the usual limits of such assays
[12] = biological target: HLA-A*24:02; assay: as above
[13] = biological target: HLA-A*29:02; assay: IEDB peptide-MHC binding, purified MHC/direct/fluorescence; filed as Kd, often an IC50 or EC50 that approximates it; ≥ and ≤ were set here for values at or beyond the usual limits of such assays
[14] = biological target: HLA-A*01:01; assay: as above
[15] = biological target: HLA-B*15:01; assay: IEDB peptide-MHC binding, purified MHC/competitive/fluorescence; filed as Kd, often an IC50 or EC50 that approximates it; ≥ and ≤ were set here for values at or beyond the usual limits of such assays; conditions: source organism: Salmonella enterica subsp. enterica serovar Typhi
[16] = biological target: HLA-B*35:01; assay: as above; conditions: source organism: Salmonella enterica subsp. enterica serovar Typhi
[17] = biological target: HLA-A*26:01; assay: as above; conditions: source organism: Salmonella enterica subsp. enterica serovar Typhi
[18] = biological target: HLA-A*68:01; assay: IEDB peptide-MHC binding, purified MHC/competitive/radioactivity; filed as Kd, often an IC50 or EC50 that approximates it; ≥ and ≤ were set here for values at or beyond the usual limits of such assays; conditions: source organism: Dengue virus 3 Martinique/1243/1999
[19] = biological target: HLA-B*57:01; assay: as above
[20] = biological target: HLA-A*68:02; assay: IEDB peptide-MHC binding, purified MHC/competitive/fluorescence; filed as Kd, often an IC50 or EC50 that approximates it; ≥ and ≤ were set here for values at or beyond the usual limits of such assays; conditions: source organism: Cryptosporidium parvum Iowa II
[21] = biological target: HLA-B*58:01; assay: IEDB peptide-MHC binding, purified MHC/competitive/radioactivity; filed as Kd, often an IC50 or EC50 that approximates it; ≥ and ≤ were set here for values at or beyond the usual limits of such assays
[22] = biological target: HLA-A*03:01; assay: IEDB peptide-MHC binding, purified MHC/direct/fluorescence; filed as Kd, often an IC50 or EC50 that approximates it; ≥ and ≤ were set here for values at or beyond the usual limits of such assays; conditions: source organism: Mycobacterium avium 104
[23] = biological target: HLA-B*40:01; assay: as above; conditions: source organism: Mycobacterium avium 104
[24] = biological target: HLA-B*18:01; assay: as above; conditions: source organism: Mycobacterium avium 104
[25] = biological target: HLA-B*27:05; assay: as above; conditions: source organism: Mycobacterium avium 104
[26] = biological target: HLA-A*11:01; assay: as above; conditions: source organism: Mycobacterium avium 104
[27] = biological target: HLA-B*08:01; assay: as above; conditions: source organism: Mycobacterium avium 104
[28] = biological target: HLA-A*31:01; assay: as above; conditions: source organism: Mycobacterium avium 104
[29] = biological target: HLA-B*48:01; assay: as above; conditions: source organism: Mycobacterium avium 104
[30] = biological target: HLA-B*58:01; assay: as above; conditions: source organism: Mycobacterium avium 104
[31] = biological target: HLA-A*69:01; assay: as above; conditions: source organism: Mycobacterium avium 104
[32] = biological target: HLA-B*44:02; assay: as above; conditions: source organism: Mycobacterium avium 104
[33] = biological target: HLA-A*02:01; assay: IEDB peptide-MHC binding, purified MHC/competitive/fluorescence; ≥ and ≤ were set here for values at or beyond the usual limits of such assays; conditions: source organism: Zaire ebolavirus
[34] = source organism: Vaccinia virus
[35] = source organism: Dengue virus 3 Martinique/1243/1999
[36] = source organism: Mycobacterium avium 104
[37] = source organism: Dengue virus 2 Jamaica/1409/1983
[38] = source organism: Zaire ebolavirus

## QKMHNHYAY
[1]
  Kd: 19.9 nM

## IKTMMINPF
[2]
  Kd: 0.191 nM

## KLYEGDLRV
[3]
  Kd: 5 nM
[4]
  Kd: 8 nM
[5]; source organism: Orthohantavirus andesense
  Kd: ≤ 1 nM
[6]
  Kd: ≤ 1 nM

## KVREHTFVK
[2]
  Kd: 19300 nM
[7]
  Kd: 4120 nM
[8]
  Kd: 148 nM
[9]
  Kd: ≥ 45400 nM
[10]
  Kd: 2.12 nM

## PYEGGKVFA
[11]; [34]
  IC50: ≥ 118000 nM
[12]; [34]
  IC50: 13900 nM

## FSKKKVCFV
[2]
  Kd: 13100 nM
[7]
  Kd: 1850 nM
[8]
  Kd: ≥ 35400 nM
[9]
  Kd: 5.98 nM
[10]
  Kd: 1160 nM

## DTDPLPVVF
[13]; source organism: Mycobacterium tuberculosis str. Haarlem
  Kd: ≥ 20000 nM
[14]; source organism: Mycobacterium tuberculosis variant bovis
  Kd: 236 nM

## FAHDDRYLY
[15]
  Kd: 200 nM
[16]
  Kd: 0.2 nM
[17]
  Kd: 54.4 nM

## GTSGSPIINR
[18]
  Kd: 13.8 nM
[19]; [35]
  Kd: 4000 nM

## FTAYYLILA
[20]
  Kd: 9.7 nM

## VIASSGMLW
[21]; [35]
  Kd: 56 nM

## IAHVRDVVM
[22]
  Kd: ≥ 20000 nM
[23]
  Kd: ≥ 20000 nM
[24]
  Kd: ≥ 20000 nM
[25]
  Kd: ≥ 20000 nM
[26]
  Kd: ≥ 20000 nM
[13]; [36]
  Kd: ≥ 20000 nM
[27]
  Kd: 182 nM
[28]
  Kd: ≥ 20000 nM
[14]; [36]
  Kd: ≥ 20000 nM
[29]
  Kd: ≥ 20000 nM
[30]
  Kd: ≥ 20000 nM
[5]; [36]
  Kd: ≥ 20000 nM
[31]
  Kd: ≥ 20000 nM
[32]
  Kd: ≥ 20000 nM

## GTDSNGMLW
[13]; source organism: Mycobacterium tuberculosis H37Rv
  Kd: ≥ 20000 nM
[14]; source organism: Mycobacterium tuberculosis
  Kd: 74.8 nM

## LASSLLKNDI
[19]; [37]
  Kd: 1280 nM
[21]; [37]
  Kd: 717 nM

## SSGYYSTTI
[11]; [38]
  IC50: 33800 nM
[12]; [38]
  IC50: 2140 nM
[33]
  IC50: 65200 nM

## LTSLGKAVHQ
[19]; source organism: Dengue virus 4 Philippines/H241/1956
  Kd: ≥ 70400 nM

## AQYASTLSV
[2]
  Kd: 0.162 nM

## ASGKLITEW
[19]; [37]
  Kd: 4.7 nM
[21]; [37]
  Kd: 13.5 nM

## FASALTALND
[19]; [37]
  Kd: 636 nM
[21]; [37]
  Kd: 1570 nM
